Test results as given in paper doi:10.1101/2023.05.09.539743 (bioRxiv, 2023).

Molecular target: T1, His-ARS2^147-871 (human, UniProt Q9BXP5-4 147-871)
T1 sequence (looked up): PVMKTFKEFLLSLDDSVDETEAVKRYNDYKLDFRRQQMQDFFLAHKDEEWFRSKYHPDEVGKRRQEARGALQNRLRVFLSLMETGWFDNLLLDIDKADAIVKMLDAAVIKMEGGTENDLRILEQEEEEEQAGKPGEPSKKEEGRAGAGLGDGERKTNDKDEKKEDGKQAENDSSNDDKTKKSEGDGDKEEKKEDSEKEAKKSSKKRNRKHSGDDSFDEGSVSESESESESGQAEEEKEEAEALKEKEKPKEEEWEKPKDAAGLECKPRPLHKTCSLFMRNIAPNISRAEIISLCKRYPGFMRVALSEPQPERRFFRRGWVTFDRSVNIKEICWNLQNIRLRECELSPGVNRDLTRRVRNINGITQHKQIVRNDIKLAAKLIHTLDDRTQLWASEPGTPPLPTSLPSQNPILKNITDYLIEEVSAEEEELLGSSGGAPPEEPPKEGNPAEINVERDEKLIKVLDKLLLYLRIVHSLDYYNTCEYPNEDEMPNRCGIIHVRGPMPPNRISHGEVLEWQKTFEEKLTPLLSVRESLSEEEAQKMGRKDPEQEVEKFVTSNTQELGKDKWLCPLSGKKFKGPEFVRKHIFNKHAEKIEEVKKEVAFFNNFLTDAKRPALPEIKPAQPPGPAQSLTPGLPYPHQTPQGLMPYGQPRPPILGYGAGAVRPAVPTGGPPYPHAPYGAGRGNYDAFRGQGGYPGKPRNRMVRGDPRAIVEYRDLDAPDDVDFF
Assay: pull-down

- binding result: binds
B1: His-MBP-Z1^11-35(WT) (domain or fragment, human, UniProt O60293 11-35, looked up)
chain: SSGLSPKEEGELEDGEISDDDNNSQ
